Measured values from article PMC11081511.

Tested on: Phloem protein 2 (PP2), 26 kDa major variant (cucumber)
Experiment: northwestern
Conditions: Northwestern: 10 mM Tris-HCl pH 7.5, 1 mM EDTA, 100 mM NaCl, 0.02% Ficoll 400, 0.02% PVP-40, 1% BSA, 5 pmol probe, 50 ug/ml yeast tRNA, renaturation 25 C. …

| Substance | binding signal (fold vs PEMV2) | binding signal (reference for fold values) |
| --- | --- | --- |
| CY1 D-RNA | 10 | – |
| CY1 full-length RNA | 7.5 | – |
| PEMV2 RNA | – | 1 |
